According to PMC2682783:

Experiments:
[1] = biological target: urea transporter ApUT from Actinobacillus pleuropneumoniae (Actinobacillus pleuropneumoniae); assay: electron microscopy of negatively stained 2D crystals
[2] = biological target: urea transporter ApUT from Actinobacillus pleuropneumoniae (Actinobacillus pleuropneumoniae); assay: native gel or EMSA
[3] = biological target: urea transporter ApUT from Actinobacillus pleuropneumoniae (Actinobacillus pleuropneumoniae); assay: cross-linking

Measured: stoichiometry N

urea transporter ApUT from Actinobacillus pleuropneumoniae (from UniProt A0A2Z6AQW9 1-300) (natural protein)
2: all assays above
